Drawing on patent publication US10415067B2, “Method for the enzymatic production of D-erythrose and acetyl phosphate” (SCIENTIST OF FORTUNE S.A., priority 2014, dated 2019), this text covers kcat and Km for four molecules.

In data set [1] the target is T1, Bifidobacterium pseudolongum subsp. globosum phosphoketolase, Uniprot Q6R2Q6, SEQ ID NO: 1 (Bifidobacterium pseudolongum, UniProt Q6R2Q6).
T1 sequence (Q6R2Q6 1-825): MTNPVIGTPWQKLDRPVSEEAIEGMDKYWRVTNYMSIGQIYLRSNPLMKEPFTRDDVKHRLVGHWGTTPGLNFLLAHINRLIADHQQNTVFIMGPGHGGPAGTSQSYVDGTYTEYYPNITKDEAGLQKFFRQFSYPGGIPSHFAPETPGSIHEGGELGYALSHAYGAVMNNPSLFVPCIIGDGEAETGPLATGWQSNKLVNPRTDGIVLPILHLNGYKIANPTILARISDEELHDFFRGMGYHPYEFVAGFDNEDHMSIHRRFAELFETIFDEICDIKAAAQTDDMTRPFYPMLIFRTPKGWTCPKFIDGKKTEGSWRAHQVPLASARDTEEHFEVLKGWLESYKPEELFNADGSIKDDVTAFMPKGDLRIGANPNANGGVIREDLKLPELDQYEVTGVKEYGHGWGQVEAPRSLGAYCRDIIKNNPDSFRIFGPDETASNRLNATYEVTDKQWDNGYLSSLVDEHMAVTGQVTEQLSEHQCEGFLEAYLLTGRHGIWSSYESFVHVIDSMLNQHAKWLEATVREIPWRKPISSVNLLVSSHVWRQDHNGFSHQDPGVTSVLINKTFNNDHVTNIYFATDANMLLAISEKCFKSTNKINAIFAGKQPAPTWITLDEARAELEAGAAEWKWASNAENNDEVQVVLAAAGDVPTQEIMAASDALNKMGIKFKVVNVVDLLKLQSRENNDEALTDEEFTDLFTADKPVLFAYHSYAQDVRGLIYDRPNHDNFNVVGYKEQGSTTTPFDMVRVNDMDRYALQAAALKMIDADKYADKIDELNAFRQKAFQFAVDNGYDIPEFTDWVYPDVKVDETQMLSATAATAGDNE
In words: Kinetics of acetyl phosphate formation from D-fructose (hydroxamate-based colorimetric assay). The class given is biochemical. The following applies: D-fructose 0-500 mM, 50 mM sodium phosphate, pH 7.5, 37° C., 3 mg/ml enzyme. The source says: (§1) The sequences of phosphoketolases inferred from the genomes of prokaryotic organisms were generated by oligonucleotide concatenation to fit the codon usage of E. coli (genes were commercially synthesized by GeneArt®). A stretch of 6 histidine codons was inserted after the methionine initiation codon to provide an affinity tag for purification. The genes thus synthesized were cloned in a modified pUC18 expression vector (New England Biolabs) containing a modified Multiple Cloning Sites (MCS). The genes of interest were cloned at PacI and NotI restriction sites. Competent MG1655 E. coli cells were transformed with these vectors using standard heat shock procedure. The transformed cells were grown in LB-ampicillin medium for 24 h at 30° C., 160 rpm shaking.
(§2) The pellets from 200 ml of cultured cells were thawed on ice and resuspended in 3 ml of 50 mM Tris-HCl pH 7.5 containing 300 mM NaCl, 5 mM MgCl2, 1 mM DTT and 10 mM Imidazole. 10 μl of lysonase (Merck) was added. […] Protein concentrations were quantified by direct UV 280 nm measurement on the NanoDrop 1000 spectrophotometer (Thermo Scientific). […]
(§3) The composition of enzymatic reactions was identical to that described above. Kinetic parameters were determined using a range of D-fructose concentrations (0-500 mM) and a constant concentration of sodium phosphate (50 mM). […]

Data set [2] addresses Lactococcus lactis subsp. lactis (strain KF147) phosphoketolase, Uniprot A9QST6, SEQ ID NO: 3 (Lactococcus lactis, UniProt Q9CFH4). The data set is described as above. The following applies: D-fructose 0-500 mM, 50 mM sodium phosphate, pH 7.5, 37° C., 3 mg/ml enzyme. Format: biochemical.
Description: as §1, §2, §3

Substrate in data set [3]: O=CCO
The experiment in a line: Kinetics of acetyl phosphate formation from glycolaldehyde (hydroxamate-based colorimetric assay). The class given is biochemical, Lactococcus lactis subsp. lactis (strain KF147). The following applies: other: glycolaldehyde 0-100 mM, 50 mM sodium phosphate, pH 7.5, 37° C., 3 mg/ml enzyme.
Description: as §1, §2
(§4) 0.1 ml of hydroxylamine hydrochloride (2 M, pH 6.5) was added to 0.1 ml of reaction mixture. […] The samples were further clarified by centrifugation and the absorbance of ferric acetyl-hydroxamate complex was measured at 505 nm. […]

Substrate in data set [4]: O=CCO
The data set is described as above. The class given is biochemical, Clostridium acetobutylicum (strain ATCC 824). The following applies: other: glycolaldehyde 0-100 mM, 50 mM sodium phosphate, pH 7.5, 37° C., 3 mg/ml enzyme.
Description: as §1, §2, §4

Substrate in data set [5]: O=CCO
Described as above. The following applies: other: glycolaldehyde 0-100 mM, 50 mM sodium phosphate, pH 7.5, 37° C., 3 mg/ml enzyme. Format: biochemical, Bifidobacterium pseudolongum subsp. globosum.
Description: as §1, §2, §4

Broadly, the kcat is the number of substrate molecules converted per active site and unit of time at saturation.

On to `OCC1(O)OC[C@@H](O)[C@@H](O)[C@@H]1O` (stereo partly drawn) [D-fructose], for which the kcat is 0.10 ± 0.02 s⁻¹ in data set [1] and 0.11 ± 0.04 s⁻¹ in data set [2].

B1: Lactococcus lactis subsp. lactis (strain KF147) phosphoketolase, Uniprot A9QST6, SEQ ID NO: 3 (Lactococcus lactis subsp. lactis Il1403) (protein)
chain: MTEYNSEAYLKKLDKWWRAATYLGAGMIFLKENPLFSVTGTPIKAENLKANPIGHWGTVSGQTFLYAHANRLINKYNQKMFYMGGPGHGGQAMVVPSYLDGSYTEAYPEITQDLEGMSRLFKRFSFPGGIGSHMTAQTPGSLHEGGELGYVLSHATGAILDQPEQIAFAVVGDGEAETGPLMTSWHSIKFINPKNDGAILPILDLNGFKISNPTLFARTSDVDIRKFFEGLGYSPRYIENDDIHDYMAYHKLAAEVFDKAIEDIHQIQKDAREDNRYQNGEIPAWPIVIARLPKGWGGPRYNDWSGPKFDGKGMPIEHSFRAHQVPLPLSSKNMGTLPEFVKWMTSYQPETLFNADGSLKEELRDFAPKGEMRMASNPVTNGGVDYSNLVLPDWQEFANPISENNRGKLLPDTNDNMDMNVLSKYFAEIVKLNPTRFRLFGPDETMSNRFWEMFKVTNRQWMQVIKNPNDEFISPEGRIIDSQLSEHQAEGWLEGYTLTGRTGVFASYESFLRVVDSMLTQHFKWIRQAADQKWRHDYPSLNVISTSTVFQQDHNGYTHQDPGMLTHLAEKKSDFIRQYLPADGNTLLAVFDRAFQDRSKINHIVASKQPRQQWFTKEEAEKLATDGIATIDWASTAKDGEAVDLVFASAGAEPTIETLAALHLVNEVFPQAKFRYVNVVELGRLQKKKGALNQERELSDEEFEKYFGPSGTPVIFGFHGYEDLIESIFYQRGHDGLIVHGYREDGDITTTYDMRVYSELDRFHQAIDAMQVLYVNRKVNQGLAKAFIDRMERTLVKHFEVTRNEGVDIPEFTEWVWSDLKK
For the molecule B1, in data set [3], the Km result is on record as “≈25 mM mM” and the kcat came out at 0.05 s⁻¹.

B2: Clostridium acetobutylicum (strain ATCC 824) phosphoketolase, Uniprot Q97JE3, SEQ ID NO: 2 (Clostridium acetobutylicum ATCC 824) (protein)
chain: MQSIIGKHKDEGKITPEYLKKIDAYWRAANFISVGQLYLLDNPLLREPLKPEHLKRKVVGHWGTIPGQNFIYAHLNRVIKKYDLDMIYVSGPGHGGQVMVSNSYLDGTYSEVYPNVSRDLNGLKKLCKQFSFPGGISSHMAPETPGSINEGGELGYSLAHSFGAVFDNPDLITACVVGDGEAETGPLATSWQANKFLNPVTDGAVLPILHLNGYKISNPTVLSRIPKDELEKFFEGNGWKPYFVEGEDPETMHKLMAETLDIVTEEILNIQKNARENNDCSRPKWPMIVLRTPKGWTGPKFVDGVPNEGSFRAHQVPLAVDRYHTENLDQLEEWLKSYKPEELFDENYRLIPELEELTPKGNKRMAANLHANGGLLLRELRTPDFRDYAVDVPTPGSTVKQDMIELGKYVRDVVKLNEDTRNFRIFGPDETMSNRLWAVFEGTKRQWLSEIKEPNDEFLSNDGRIVDSMLSEHLCEGWLEGYLLTGRHGFFASYEAFLRIVDSMITQHGKWLKVTSQLPWRKDIASLNLIATSNVWQQDHNGYTHQDPGLLGHIVDKKPEIVRAYLPADANTLLAVFDKCLHTKHKINLLVTSKHPRQQWLTMDQAVKHVEQGISIWDWASNDKGQEPDVVIASCGDTPTLEALAAVTILHEHLPELKVRFVNVVDMMKLLPENEHPHGLSDKDYNALFTTDKPVIFAFHGFAHLINQLTYHRENRNLHVHGYMEEGTITTPFDMRVQNKLDRFNLVKDVVENLPQLGNRGAHLVQLMNDKLVEHNQYIREVGEDLPEITNWQWHV
In the case of B2, in data set [4], the Km result is recorded as “≈30 mM mM” and the kcat came out at 0.08 s⁻¹.

B3: Bifidobacterium pseudolongum subsp. globosum phosphoketolase, Uniprot Q6R2Q6, SEQ ID NO: 1 (Bifidobacterium pseudolongum subsp. globosum) (protein)
chain: T1 sequence (Q6R2Q6 1-825)
Turning to B3, in data set [5], the Km result is given as “≈20 mM mM” and the kcat came to 0.07 s⁻¹.
